From patent US20160060347A1 (MorphoSys, published 2016)
Changes are numbered by the printed parent chain.

How the values were obtained:
[1] = target: T1, N-terminal peptide aa1-48, BSA-coupled (human; bovine, coupled to carrier protein BSA; C-terminal cysteine introduced to enable coupling); assay: ELISA, coated peptide-BSA, IgG1
T1 construct: also called CXCR2 aa1-48 BSA
Description: (§1) 384-well Maxisorp plates (Nunc; Cat. #460518) were coated with respective CXCR2 and control peptides coupled either to BSA or Transferrin (TRF) at 1-5 μg/mL and incubated o/n at 4° C. […] After three washing steps, antibodies were added at 5-10 μg/mL and titrated in some experiments. Antibodies were incubated 1 h at room temperature and plates were subsequently washed. Binding of anti-CXCR2 antibodies was detected by using alkaline phosphatase-conjugated anti-human IgG, (Dianova, Cat #109-055-097). AttoPhos fluorescence substrate (Roche, Cat #1484281) was added according to instructions of the manufacturer and fluorescence was measured (excitation at 430 nm, emission at 535 nm) using a microplate reader.
Target sequence in this assay (P02769 25-607 limits assumed): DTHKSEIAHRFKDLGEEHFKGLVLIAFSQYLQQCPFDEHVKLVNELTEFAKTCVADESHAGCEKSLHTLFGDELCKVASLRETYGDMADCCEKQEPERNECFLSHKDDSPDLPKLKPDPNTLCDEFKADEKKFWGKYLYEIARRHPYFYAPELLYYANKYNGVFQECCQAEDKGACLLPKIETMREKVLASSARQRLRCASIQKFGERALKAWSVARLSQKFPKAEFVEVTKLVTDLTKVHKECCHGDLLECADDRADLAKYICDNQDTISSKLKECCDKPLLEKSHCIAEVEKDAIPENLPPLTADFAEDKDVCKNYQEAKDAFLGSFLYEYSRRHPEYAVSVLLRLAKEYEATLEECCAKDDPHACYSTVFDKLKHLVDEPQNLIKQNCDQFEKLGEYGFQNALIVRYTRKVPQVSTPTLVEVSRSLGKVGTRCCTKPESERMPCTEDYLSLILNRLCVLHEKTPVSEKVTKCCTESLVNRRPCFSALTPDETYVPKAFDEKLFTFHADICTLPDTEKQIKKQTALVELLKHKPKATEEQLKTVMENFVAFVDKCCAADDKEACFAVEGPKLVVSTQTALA

[2] = target: T2, hu_CXCR2_N-term (1-17)-BSA (human; bovine, coupled to carrier protein BSA; C-terminal cysteine introduced to enable coupling); assay: ELISA, coated peptide-BSA, IgG1
T2 construct: Synthetic linear peptide chemically coupled to the carrier; also called CXCR2_aa1-17_BSA; CXCR2 aa1-17 BSA
Description: as §1

human CXCR2 [3] = target: T3, human CXCR2 (human, UniProt P25025 1-360); assay: FACS, CXCR2 CHO Flp-In cells, IgG1
T3 construct: Expressed on Flp-In CHO cells (FACS, Fab-ZAP, ADCC, CDC) or on bought PathHunter CHO cells (beta-arrestin assay); the construct in the PathHunter cells is not described; also called chemokine receptor CXCR2; CXCR2 CHO Flp-In cells
T3 sequence: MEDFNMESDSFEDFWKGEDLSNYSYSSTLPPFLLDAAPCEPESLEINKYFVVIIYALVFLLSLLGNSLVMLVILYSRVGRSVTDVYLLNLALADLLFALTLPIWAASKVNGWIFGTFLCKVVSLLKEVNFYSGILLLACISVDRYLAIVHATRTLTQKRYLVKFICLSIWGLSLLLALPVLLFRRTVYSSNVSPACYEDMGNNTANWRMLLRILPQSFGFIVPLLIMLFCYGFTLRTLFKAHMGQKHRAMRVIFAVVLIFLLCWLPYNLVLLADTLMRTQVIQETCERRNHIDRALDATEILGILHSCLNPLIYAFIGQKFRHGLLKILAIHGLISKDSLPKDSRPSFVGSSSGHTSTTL
Description: (§2) Human CXCR2-expressing Flp-In™ CHO cells were harvested at ˜80% confluence washed once with PBS (Gibco, Cat #14190-094) and detached using Versene (Invitrogen, Cat #15040-033). Subsequently, cells were counted and centrifuged at 250×g for 5 min at 4° C. Afterwards, cells were diluted in Superblock (Thermo Fisher Perbio Science, Cat #37515) to a cell concentration of 2E+05-1E+06/mL and 100 μL/well were transferred to 96-well microtiter plate (Nunc, Cat#163320). Cells were once centrifuged, supernatant discarded and antibodies added at 1 μg/mL (unless stated otherwise), incubated for 1 h at 4° C. and washed twice with FACS buffer (PBS/3% FCS/0.02% NaN3). Binding of anti-CXCR2 antibodies was detected by incubation of Phycoerythrin-conjugated anti-human IgG (Dianova, Cat #109-116-097) for 1 h at 4° C. Samples were subsequently measured using FACS Array (Becton Dickinson).

human CXCR2 [4] = target: T3, human CXCR2; assay: FACS, CXCR2 CHO Flp-In cells, Fab
Description: as §2

[5] = target: T1, N-terminal peptide aa1-48, BSA-coupled; assay: ELISA, coated peptide-BSA, Fab
Description: as §1

[6] = target: T2, hu_CXCR2_N-term (1-17)-BSA; assay: ELISA, coated peptide-BSA, Fab
Description: as §1

[7] = target: T4, ECL3 peptide aa273-295, BSA-coupled (human; bovine, coupled to carrier protein BSA; C-terminal cysteine introduced to enable coupling); assay: ELISA, coated peptide-BSA, Fab
T4 construct: also called CXCR2 aa273-295 BSA; peptides representing the extracellular domain 3
Description: as §1

Measured: binding result

T2 sequence (P02769 25-607 limits assumed): as the sequence (P02769 25-607 limits assumed) above
T4 sequence (peptide, as listed by the source limits assumed, chain 1 of 2): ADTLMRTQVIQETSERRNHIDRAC
T4 sequence (P02769 25-607 limits assumed, chain 2 of 2): as the sequence (P02769 25-607 limits assumed) above

B1: CX2-Mab #4.1 (antibody, IgG1, V domains shown)
VH: QVQLVQSGAEVKKPGSSVKVSCKASGGTFSSYAISWVRQAPGQGLEWMGHIPPNEGTPWYAQKFQGRVTITADESTSTAYMELSSLRSEDTAVYYCARGYGFDVWGQGTLVTVSS
VL: DIVLTQPPSVSGAPGQRVTISCSGSSSNIGVNIVNWYQQLPGTAPKLLIYSTSNRPSGVPDRFSGSKSGTSASLAITGLQAEDEADYYCATRDGISKSVVFGGGTKLTVLG
binds: [1] | [2] | human CXCR2 [3]

B2: CX2-Mab #4.2 (antibody, IgG1, V domains shown)
VH: QVQLLESGGGLVQPGGSLRLSCAASGFTFSSNGMSWVRQAPGKGLEWVSAISSSGSKTYYADSVKGRFTISRDNSKNTLYLQMNSLRAEDTAVYYCARGYGFDVWGQGTLVTVSS
VL: B1 VL with A90G, R92Y, G94V, I95Q, K97H, S98Q, V99M
binds: [1] | [2] | human CXCR2 [3]

B3: CX2-Mab #1.1 (antibody, IgG1, V domains shown)
VH: QVQLVQSGAEVKKPGSSVKVSCKASGGTFSSYAISWVRQAPGQGLEWMGGIIPIVGEAKYAQKFQGRVTITADESTSTAYMELSSLRSEDTAVYYCARDSSGYDGYYAFAYWGQGTQVTVSS
VL: DIVLTQPPSVSGAPGQRGTISCSGSSSNIGSSSVNWYQQLPGTAPKLLIYRNNQRPSGVPDRFSGSKSGTSASLAITGLQAEDEADYYCGSTDMSTNSIVFGGGTKLTVLG
binds: [1] | [2] | human CXCR2 [3]

B4: CX2-Mab #1.3 (antibody, IgG1, V domains shown)
VH: B3 VH
VL: DIVLTQPPSVSGAPGQRGTISCSGSSSNIGSSSVNWYQQLPGTAPKLLIYRNNQRPSGVPDRFSGSKSGTSASLAITGLQAEDEADYYCAVTTKPQGIVFGGGTKLTVLG
binds: [1] | [2] | human CXCR2 [3]

B5: CX2-Mab #1.4 (antibody, IgG1, V domains shown)
VH: B3 VH
VL: B4 VL with V91S, T93D, K94I, P95S, Q96R, G97V
binds: [1] | [2] | human CXCR2 [3]

B6: CX2-Mab #1.6 (antibody, IgG1, V domains shown)
VH: B3 VH
VL: B3 VL with G90A, T92R, M94H, S95F, T96S, N97H, S98G, I99L
binds: [1] | [2] | human CXCR2 [3]

B7: CX2-Mab #15 (Fab, V domains shown)
VH: EVQLLESGGGLVQPGGSLRLSCAASGFTFSRYWMSWVRQAPGKGLEWVSVISYSGSETYYADSVKGRFTISRDNSKNTLYLQMNSLRAEDTAVYYCARGRAYGYFDPWGQGTLVTVSS
VL: DIVLTQPPSVSGAPGQRVTISCSGSSSNIGKKTVSWYQQLPGTAPKLLIYRNNQRPSGVPDRFSGSKSGTSASLAITGLQAEDEADYYCGSTTSSHLYVFGGGTKLTVLG
binds: human CXCR2 [4] | [5] | [6] | [7]

B8: CX2-Mab #10 (Fab, V domains shown)
VH: B7 VH
VL: DIVLTQPPSVSGAPGQRVTISCSGSSSNIGKKTVSWYQQLPGTAPKLLIYRNNQRPSGVPDRFSGSKSGTSASLAITGLQAEDEADYYCSSTTSSSRSVVFGGGTKLTVLG
binds: human CXCR2 [4] | [5] | [6] | [7]

B9: CX2-Mab #17 (Fab, V domains shown)
VH: B7 VH with R31S, W33S, V50Y, Y53S, S54A, E57N, P107Y
VL: DIVLTQPPSVSGAPGQRVTISCSGSSSNIGSNTVYWYQQLPGTAPKLLISSNTKRPSGVPDRFSGSKSGTSASLAITGLQAEDEADYYCQVTDFRLHHVVFGGGTKLTVLG
binds: human CXCR2 [4] | [5] | [6] | [7]

B10: CX2-Mab #12 (Fab, V domains shown)
VH: B7 VH with E1Q
VL: B8 VL with S90Q, T93D, S95T, S96H, S98M, V99A
binds: human CXCR2 [4] | [5] | [6] | [7]

B11: CX2-Mab #16 (Fab, V domains shown)
VH: B7 VH
VL: B7 VL with T93G, S94Y, S95R, H96G
binds: human CXCR2 [4] | [5] | [6] | [7]

B12: CX2-Mab #3.2 (antibody, IgG1, V domains shown)
VH: QVQLLESGGGLVQPGGSLRLSCAASGFTFSSYAMSWVRQAPGKGLEWVSLISQGGLTYYADSVKGRFTISRDNSKNTLYLQMNSLRAEDTAVYYCARGRVGYAFDYWGQGTLVTVSS
VL: DIVLTQPPSVSGAPGQRVTISCSGSSSNIGVNYVNWYQQLPGTAPKLLIYSNNQRPSGVPDRFSGSKSGTSASLAITGLQAEDEADYYCQSRASGFYSVVFGGGTKLTVLG
binds: [1] | [2] | human CXCR2 [3]

B13: CX2-Mab #14 (Fab, V domains shown)
VH: QVQLQQSGPGLVKPSQTLSLTCAISGDSVSSNSAAWNWIRQSPSRGLEWLGRIYYRSKWYNDYAVSVKSRITINPDTSKNQFSLQLNSVTPEDTAVYYCARDVPYYSDYSHYVYYYGAWFDVWGQGTLVTVSS
VL: DIELTQPPSVSVSPGQTASITCSGDSIPYNYAHWYQQKPGQAPVLVIYDDSDRPSGIPERFSGSNSGNTATLTISGTQAEDEADYYCGAYDKKWVVFGGGTKLTVLG
binds: human CXCR2 [4] | [5]

B14: CX2-Mab #18 (Fab, V domains shown)
VH: EVQLLESGGGLVQPGGSLRLSCAASGFTFSRYAMSWVRQAPGKGLEWVSVISSDGGTTYYADSVKGRFTISRDNSKNTLYLQMNSLRAEDTAVYYCARIFSYALDYWGQGTLVTVSS
VL: DIVLTQPPSVSGAPGQRVTISCSGSSSNIGSYYVNWYQQLPGTAPKLLIYRNSKRPSGVPDRFSGSKSGTSASLAITGLQAEDEADYYCSSYDAHSDSVVFGGGTKLTVLG
binds: human CXCR2 [4] | [5] | [6] | [7]

B15: CX2-Mab #11 (Fab, V domains shown)
VH: QVQLVQSGAEVKKPGSSVKVSCKASGGTFTDYAISWVRQAPGQGLEWMGGIIPIFGTANYAQKFQGRVTITADESTSTAYMELSSLRSEDTAVYYCARHSYSFDYWGQGTLVTVSS
VL: DIELTQPPSVSVSPGQTASITCSGDNLRKKYAYWYQQKPGQAPVLVIGSKSNRPSGIPERFSGSNSGNTATLTISGTQAEDEADYYCQSYDSGRVVFGGGTKLTVLG
binds: human CXCR2 [4] | [5]
